Results reported in the supplement of paper PMC10065799, “High-throughput profiling of sequence recognition by tyrosine kinases and SH2 domains using bacterial peptide display” (eLife, 2023).

What was measured:
c-Src SH2 = assay: SH2 binding enrichment of the phosphorylated peptide, bacterial display (enrichment ratio); higher = better substrate or ligand; peptides without Tyr show the background
Grb2 SH2 = Grb2 SH2 (UniProt P62993); assay: as above
SHP2-C SH2 = assay: as above
FGFR3 = FGFR3 (UniProt P22607); assay: phosphorylation enrichment, bacterial display (enrichment ratio); higher = better substrate or ligand; peptides without Tyr show the background
Sequence of FGFR3 (P22607 whole entry, looked up): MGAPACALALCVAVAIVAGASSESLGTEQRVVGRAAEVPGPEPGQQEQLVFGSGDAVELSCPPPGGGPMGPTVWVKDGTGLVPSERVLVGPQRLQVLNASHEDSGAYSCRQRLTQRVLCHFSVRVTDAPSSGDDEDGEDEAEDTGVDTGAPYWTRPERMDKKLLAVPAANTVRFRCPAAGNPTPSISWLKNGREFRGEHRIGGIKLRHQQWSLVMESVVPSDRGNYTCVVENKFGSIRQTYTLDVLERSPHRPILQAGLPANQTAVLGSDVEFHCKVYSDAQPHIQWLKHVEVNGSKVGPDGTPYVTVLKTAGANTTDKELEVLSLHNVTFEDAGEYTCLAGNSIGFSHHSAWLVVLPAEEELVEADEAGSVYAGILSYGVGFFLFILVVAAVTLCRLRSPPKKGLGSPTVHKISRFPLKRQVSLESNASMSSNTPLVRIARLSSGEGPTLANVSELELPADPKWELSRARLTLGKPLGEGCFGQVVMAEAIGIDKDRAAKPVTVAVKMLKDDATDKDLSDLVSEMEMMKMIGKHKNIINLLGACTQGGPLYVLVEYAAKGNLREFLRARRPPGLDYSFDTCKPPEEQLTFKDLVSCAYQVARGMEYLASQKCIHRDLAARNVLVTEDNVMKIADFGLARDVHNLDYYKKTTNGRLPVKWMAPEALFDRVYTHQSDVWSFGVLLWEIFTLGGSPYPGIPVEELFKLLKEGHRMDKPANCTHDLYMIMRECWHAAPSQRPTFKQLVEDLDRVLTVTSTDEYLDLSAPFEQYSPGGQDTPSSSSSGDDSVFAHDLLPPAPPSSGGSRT

Fes = Fes (UniProt P07332); assay: as above
Sequence of Fes (P07332 whole entry, looked up): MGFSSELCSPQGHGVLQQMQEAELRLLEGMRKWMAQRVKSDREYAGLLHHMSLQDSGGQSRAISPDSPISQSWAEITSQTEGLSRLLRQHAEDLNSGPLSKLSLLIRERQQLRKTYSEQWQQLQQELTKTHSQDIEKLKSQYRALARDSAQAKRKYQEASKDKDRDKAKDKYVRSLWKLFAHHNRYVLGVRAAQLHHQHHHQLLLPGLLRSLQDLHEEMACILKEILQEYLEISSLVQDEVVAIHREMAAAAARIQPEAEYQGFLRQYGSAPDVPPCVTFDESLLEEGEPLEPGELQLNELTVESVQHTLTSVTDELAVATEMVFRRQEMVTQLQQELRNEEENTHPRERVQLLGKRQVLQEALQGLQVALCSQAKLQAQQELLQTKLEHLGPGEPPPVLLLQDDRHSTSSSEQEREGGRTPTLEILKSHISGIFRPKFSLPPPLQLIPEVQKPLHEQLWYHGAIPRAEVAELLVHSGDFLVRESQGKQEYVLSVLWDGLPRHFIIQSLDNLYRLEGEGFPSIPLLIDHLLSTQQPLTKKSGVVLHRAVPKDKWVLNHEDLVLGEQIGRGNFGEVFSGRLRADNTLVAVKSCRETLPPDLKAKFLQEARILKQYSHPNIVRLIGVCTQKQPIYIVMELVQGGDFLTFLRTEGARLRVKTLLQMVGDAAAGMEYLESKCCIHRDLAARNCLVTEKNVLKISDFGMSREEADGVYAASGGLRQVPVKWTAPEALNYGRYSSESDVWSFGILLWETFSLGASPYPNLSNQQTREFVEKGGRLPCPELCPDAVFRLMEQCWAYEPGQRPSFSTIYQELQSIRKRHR

c-Abl (mouse) = assay: as above
EPHB1 = EPHB1 (UniProt P54762); assay: as above
Sequence of EPHB1 (P54762 whole entry, looked up): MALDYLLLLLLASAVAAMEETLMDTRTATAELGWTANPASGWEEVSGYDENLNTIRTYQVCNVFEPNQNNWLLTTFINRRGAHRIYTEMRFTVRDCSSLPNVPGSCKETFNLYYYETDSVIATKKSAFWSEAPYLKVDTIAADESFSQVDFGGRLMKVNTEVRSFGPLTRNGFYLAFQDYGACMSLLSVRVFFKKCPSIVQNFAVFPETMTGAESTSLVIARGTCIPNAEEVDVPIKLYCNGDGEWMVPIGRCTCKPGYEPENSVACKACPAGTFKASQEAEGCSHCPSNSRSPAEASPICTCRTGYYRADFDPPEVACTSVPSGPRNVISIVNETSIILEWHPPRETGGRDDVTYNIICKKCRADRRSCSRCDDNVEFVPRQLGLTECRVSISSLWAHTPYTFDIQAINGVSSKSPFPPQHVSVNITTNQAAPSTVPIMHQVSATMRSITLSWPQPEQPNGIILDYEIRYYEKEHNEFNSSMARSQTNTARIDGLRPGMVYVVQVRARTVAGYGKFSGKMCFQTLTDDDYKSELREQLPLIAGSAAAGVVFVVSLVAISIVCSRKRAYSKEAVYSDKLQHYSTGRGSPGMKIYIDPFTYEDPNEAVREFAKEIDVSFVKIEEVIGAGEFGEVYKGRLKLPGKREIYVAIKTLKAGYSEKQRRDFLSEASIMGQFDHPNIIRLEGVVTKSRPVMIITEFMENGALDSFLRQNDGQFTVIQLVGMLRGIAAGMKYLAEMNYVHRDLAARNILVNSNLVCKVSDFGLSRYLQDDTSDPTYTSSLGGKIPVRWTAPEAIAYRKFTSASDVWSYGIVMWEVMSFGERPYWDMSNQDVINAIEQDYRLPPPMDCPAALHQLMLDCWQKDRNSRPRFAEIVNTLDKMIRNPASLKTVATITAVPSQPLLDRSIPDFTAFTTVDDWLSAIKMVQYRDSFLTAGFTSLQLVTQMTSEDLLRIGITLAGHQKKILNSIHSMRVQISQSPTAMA

Jak2 = Jak2 (UniProt O60674); assay: as above
Sequence of Jak2 (O60674 whole entry, looked up): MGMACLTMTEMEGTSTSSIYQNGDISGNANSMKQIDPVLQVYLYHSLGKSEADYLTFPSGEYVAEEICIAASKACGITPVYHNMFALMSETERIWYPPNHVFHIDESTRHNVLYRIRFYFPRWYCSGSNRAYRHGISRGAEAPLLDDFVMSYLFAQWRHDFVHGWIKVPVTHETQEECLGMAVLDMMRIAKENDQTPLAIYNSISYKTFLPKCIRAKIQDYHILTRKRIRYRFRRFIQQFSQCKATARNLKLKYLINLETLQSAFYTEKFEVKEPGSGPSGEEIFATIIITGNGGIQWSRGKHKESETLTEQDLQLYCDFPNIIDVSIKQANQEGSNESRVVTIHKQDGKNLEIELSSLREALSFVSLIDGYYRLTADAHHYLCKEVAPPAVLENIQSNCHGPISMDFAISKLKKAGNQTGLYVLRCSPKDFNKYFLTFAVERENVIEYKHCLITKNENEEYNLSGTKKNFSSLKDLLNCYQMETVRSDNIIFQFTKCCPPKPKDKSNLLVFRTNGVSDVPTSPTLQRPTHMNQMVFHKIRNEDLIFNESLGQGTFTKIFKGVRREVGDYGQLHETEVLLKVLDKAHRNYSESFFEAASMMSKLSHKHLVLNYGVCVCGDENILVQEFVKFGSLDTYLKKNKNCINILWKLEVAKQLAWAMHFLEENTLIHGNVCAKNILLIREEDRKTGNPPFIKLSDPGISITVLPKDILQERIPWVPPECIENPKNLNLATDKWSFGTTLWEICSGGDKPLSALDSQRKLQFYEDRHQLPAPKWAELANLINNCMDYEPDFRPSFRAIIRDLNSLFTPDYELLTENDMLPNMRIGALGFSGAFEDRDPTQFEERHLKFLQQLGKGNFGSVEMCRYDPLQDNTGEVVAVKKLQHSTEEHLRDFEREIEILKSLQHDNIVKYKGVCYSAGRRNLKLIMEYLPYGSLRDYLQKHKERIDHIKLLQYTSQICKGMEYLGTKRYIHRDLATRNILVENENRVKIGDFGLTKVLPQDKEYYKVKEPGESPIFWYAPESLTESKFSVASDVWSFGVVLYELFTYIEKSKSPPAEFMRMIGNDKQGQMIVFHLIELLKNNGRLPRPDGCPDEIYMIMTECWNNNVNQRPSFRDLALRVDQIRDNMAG

Fyn = Fyn (UniProt P06241); assay: as above
Sequence of Fyn (P06241 whole entry, looked up): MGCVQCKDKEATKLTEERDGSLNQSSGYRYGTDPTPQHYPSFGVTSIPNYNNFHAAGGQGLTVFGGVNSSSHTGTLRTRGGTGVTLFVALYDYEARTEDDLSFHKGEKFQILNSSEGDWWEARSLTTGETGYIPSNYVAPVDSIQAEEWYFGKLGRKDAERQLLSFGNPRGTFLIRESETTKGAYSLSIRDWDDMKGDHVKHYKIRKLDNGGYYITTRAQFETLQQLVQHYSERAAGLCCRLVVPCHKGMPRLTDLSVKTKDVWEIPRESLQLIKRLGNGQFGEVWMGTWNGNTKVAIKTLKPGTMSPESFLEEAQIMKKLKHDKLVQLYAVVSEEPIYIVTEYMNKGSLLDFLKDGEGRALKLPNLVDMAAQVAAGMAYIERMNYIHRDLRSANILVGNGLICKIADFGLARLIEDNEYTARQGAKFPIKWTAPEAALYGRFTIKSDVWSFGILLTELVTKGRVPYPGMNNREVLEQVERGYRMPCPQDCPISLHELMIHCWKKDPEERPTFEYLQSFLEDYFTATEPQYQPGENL

Fer (mouse) = assay: as above
Hck = Hck (UniProt P08631); assay: as above
Sequence of Hck (P08631 whole entry, looked up): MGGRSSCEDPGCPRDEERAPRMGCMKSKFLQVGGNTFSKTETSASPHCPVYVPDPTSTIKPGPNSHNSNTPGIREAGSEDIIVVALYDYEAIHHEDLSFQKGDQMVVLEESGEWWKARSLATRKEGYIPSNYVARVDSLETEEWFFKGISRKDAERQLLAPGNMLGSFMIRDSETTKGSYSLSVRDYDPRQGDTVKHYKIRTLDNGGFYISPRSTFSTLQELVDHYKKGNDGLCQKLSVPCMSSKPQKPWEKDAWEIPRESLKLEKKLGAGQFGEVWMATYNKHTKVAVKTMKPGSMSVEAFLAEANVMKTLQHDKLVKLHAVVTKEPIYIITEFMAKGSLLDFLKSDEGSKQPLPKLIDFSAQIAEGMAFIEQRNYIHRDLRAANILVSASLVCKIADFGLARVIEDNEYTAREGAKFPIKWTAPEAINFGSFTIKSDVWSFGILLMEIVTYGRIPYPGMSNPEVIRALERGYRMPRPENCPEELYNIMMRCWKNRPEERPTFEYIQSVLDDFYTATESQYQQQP

MERTK = MERTK (UniProt Q12866); assay: as above
c-Src = assay: as above
EPHB2 = EPHB2 (UniProt P29323); assay: as above
AncSZ = assay: as above
FGFR1 = FGFR1 (UniProt P11362); assay: as above
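For SH2 binding enrichment of the phosphorylated peptide, bacterial display in this document: peptide library displayed on the E. coli surface as eCPX fusions, selected cells deep-sequenced, score is each peptide's frequency after selection divided by its frequency in the input.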
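For phosphorylation enrichment, bacterial display in this document: 11-residue human phosphosite peptides and single-mutation variants displayed on the E. coli surface, counted by deep sequencing, each peptide's frequency after selection divided by its frequency in the unselected input library; frequency after pTyr selection over input frequency; kinase dosed for 20-30% of maximal phosphorylation in three min.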

Sequence of Grb2 SH2 (P62993 whole entry, looked up): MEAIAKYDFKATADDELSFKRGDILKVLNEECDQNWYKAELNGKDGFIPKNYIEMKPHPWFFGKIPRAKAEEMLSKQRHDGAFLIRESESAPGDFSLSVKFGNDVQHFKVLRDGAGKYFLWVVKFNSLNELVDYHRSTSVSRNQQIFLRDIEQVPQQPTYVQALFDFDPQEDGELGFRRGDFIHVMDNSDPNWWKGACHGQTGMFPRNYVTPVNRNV

Sequence | SH2 binding enrichment (c-Src SH2) | SH2 binding enrichment (Grb2 SH2) | SH2 binding enrichment (SHP2-C SH2) | phosphorylation enrichment (FGFR3) | phosphorylation enrichment (Fes) | phosphorylation enrichment (c-Abl (mouse)) | phosphorylation enrichment (EPHB1) | phosphorylation enrichment (Jak2) | phosphorylation enrichment (Fyn) | phosphorylation enrichment (Fer (mouse)) | phosphorylation enrichment (Hck) | phosphorylation enrichment (MERTK) | phosphorylation enrichment (c-Src) | phosphorylation enrichment (EPHB2) | phosphorylation enrichment (AncSZ) | phosphorylation enrichment (FGFR1)
FKDFFYCWNTS [AICDA_Y146_F151S_YF] | 0.59 | 0.815 | 0.689 | 0.939 | 1.5 | 1.08 | 0.942 | 1.42 | 0.458 | 0.768 | 0.589 | 0.836 | 0.589 | 0.61 | 1.32 | 0.496
CEHRGHLYLAI [TEK_Y897_Y897H] | 1.21 | 1.16 | 1.27 | 0.722 | 1.28 | 0.676 | 0.665 | 0.833 | 0.908 | 0.537 | 0.417 | 0.374 | 0.377 | 0.441 | 1.07 | 0.646
EARRVYGDIIH [ALDH5A1_Y175] | 0.445 | 0.977 | 0.561 | 0.447 | 0.707 | 0.596 | 0.41 | 0.517 | 0.514 | 0.477 | 0.42 | 0.408 | 0.499 | 0.378 | 0.608 | 0.426
ATPSQYMTFLH [DYNC2H1_Y2872_R2871Q] | 0.75 | 0.799 | 2.86 | 0.651 | 0.791 | 0.885 | 0.593 | 0.99 | 3.39 | 0.541 | 2.29 | 1.06 | 2.62 | 0.473 | 0.903 | 0.562
VAFVFYKSIGP [ADGRL4_Y302_YF] | 0.553 | 0.897 | 0.874 | 0.781 | 1.39 | 1.04 | 0.663 | 0.868 | 0.501 | 0.595 | 0.424 | 0.422 | 0.407 | 0.571 | 1.2 | 0.543
WFKKFYDANCD [MAPRE2_Y158_Y162C] | 0.513 | 0.848 | 0.78 | 0.707 | 1.21 | 0.749 | 0.77 | 0.948 | 0.46 | 0.453 | 0.475 | 0.35 | 0.397 | 0.426 | 1 | 0.472
DFPGNYSGYDD [POLR1C_Y33] | 2.03 | 0.853 | 0.582 | 0.913 | 1.24 | 0.976 | 1.31 | 1.17 | 0.675 | 0.65 | 0.573 | 0.62 | 0.612 | 1.3 | 1.3 | 0.671
CGTPDYIAREI [PRKCG_Y521_P524R] | 0.452 | 0.793 | 0.631 | 0.866 | 1.13 | 0.849 | 0.724 | 1.06 | 0.53 | 0.604 | 0.631 | 0.445 | 0.443 | 0.622 | 1.26 | 0.633
TGQEDYDRLRP [RAC1_Y64_A59T] | 0.528 | 0.74 | 0.746 | 0.732 | 1.17 | 0.778 | 0.781 | 1.02 | 0.756 | 0.563 | 0.836 | 0.498 | 0.603 | 0.94 | 1.34 | 0.754
VKFGAYINDFK [GLB1_Y488_N484K_YF] | 1.3 | 4.55 | 1.06 | 0.879 | 1.02 | 0.737 | 0.596 | 1.05 | 0.431 | 0.406 | 0.523 | 0.412 | 0.468 | 0.572 | 0.839 | 0.466
TLQSMYGCDMG [HLA-B_Y123_V127M] | 0.757 | 0.916 | 0.485 | 0.955 | 1.43 | 1.15 | 0.709 | 1.2 | 0.597 | 0.599 | 0.609 | 0.63 | 0.689 | 0.823 | 0.939 | 0.8
RLRIDYERVSQ [DSP_Y1542] | 0.821 | 1.07 | 1.12 | 0.878 | 1.46 | 0.742 | 1.25 | 1.01 | 0.43 | 0.702 | 0.531 | 0.539 | 0.412 | 0.613 | 1.08 | 0.543
ADLVQYYMEHH [PTPN11_Y80_E76D] | 0.714 | 0.796 | 0.919 | 1.18 | 1.12 | 0.751 | 1.16 | 0.914 | 0.668 | 0.464 | 0.967 | 0.642 | 0.84 | 0.806 | 1.18 | 1.04
EEQKKNYNAMK [SCN5A_Y1494_Y1494N] | 0.443 | 0.815 | 0.595 | 0.399 | 0.663 | 0.497 | 0.389 | 0.55 | 0.291 | 0.336 | 0.351 | 0.395 | 0.415 | 0.364 | 0.572 | 0.433
DRLAVYIDRVP [LMNA_Y45_R50P] | 0.471 | 0.756 | 0.912 | 0.731 | 1.09 | 0.654 | 0.682 | 0.911 | 0.429 | 0.437 | 0.468 | 0.331 | 0.329 | 0.719 | 1.09 | 0.451
CRWKRYQRSHD [GDPD5_Y30] | 0.483 | 0.679 | 0.604 | 0.508 | 0.563 | 0.482 | 0.458 | 0.573 | 0.472 | 0.469 | 0.527 | 0.487 | 0.579 | 0.516 | 0.675 | 0.481
FSLIHYARIVD [MYH7_Y582_G584R] | 4.46 | 1.12 | 26.8 | 0.819 | 1.29 | 0.762 | 0.702 | 1.01 | 0.528 | 0.588 | 0.506 | 0.418 | 0.426 | 0.63 | 1.13 | 0.576

Sequence | SH2 binding enrichment (c-Src SH2) | SH2 binding enrichment (Grb2 SH2) | SH2 binding enrichment (SHP2-C SH2) | phosphorylation enrichment (FGFR3) | phosphorylation enrichment (Fes) | phosphorylation enrichment (c-Abl (mouse)) | phosphorylation enrichment (EPHB1) | phosphorylation enrichment (Jak2) | phosphorylation enrichment (Fyn) | phosphorylation enrichment (Fer (mouse)) | phosphorylation enrichment (Hck) | phosphorylation enrichment (MERTK) | phosphorylation enrichment (c-Src) | phosphorylation enrichment (EPHB2) | phosphorylation enrichment (AncSZ) | phosphorylation enrichment (FGFR1)
QQIYTYDSGIH [JUP_Y22_T19I] | 0.666 | 0.922 | 0.834 | 1.84 | 0.923 | 0.91 | 3.57 | 0.788 | 10.3 | 4.16 | 4.94 | 11.1 | 6.68 | 1.98 | 1.02 | 1.86
GRMLQYLTVND [PPFIBP2_Y663_R658G] | 0.598 | 0.99 | 0.998 | 0.575 | 0.97 | 0.593 | 0.52 | 0.811 | 0.401 | 0.42 | 0.489 | 0.319 | 0.436 | 0.477 | 0.792 | 0.51
PSQRPYVFFFS [PTEN_Y174_R173P_YF] | 1.42 | 1.53 | 1.3 | 1.14 | 1.51 | 1.25 | 0.726 | 1.21 | 0.605 | 0.693 | 0.439 | 0.755 | 0.973 | 0.559 | 1.27 | 2.12
PGVNFYFRVSA | 0.424 | 0.759 | 0.701 | 1.88 | 2.13 | 1.37 | 0.914 | 1.53 | 0.653 | 0.708 | 0.817 | 0.743 | 0.599 | 0.759 | 1.73 | 1.14
QMVGKYASSFM [AVPR2_Y124_M123K_YF] | 0.467 | 0.894 | 0.732 | 0.626 | 0.992 | 1.15 | 0.772 | 0.774 | 0.564 | 0.431 | 0.413 | 0.642 | 0.635 | 0.341 | 0.613 | 0.516
MFFSKYDRDND [FGB_Y408_T407K] | 0.447 | 1.07 | 0.801 | 0.66 | 1.01 | 0.717 | 0.493 | 0.845 | 0.501 | 0.51 | 0.589 | 0.486 | 0.426 | 0.488 | 0.817 | 0.47
RELGKYGLQAF [ALDH2_Y497_E496K_YF] | 0.438 | 0.834 | 0.503 | 0.582 | 0.926 | 0.786 | 0.489 | 0.774 | 0.526 | 0.537 | 0.584 | 0.612 | 0.491 | 0.577 | 1 | 0.578
NNIDYYKNTTN [FGFR2_Y657_K659N] | 0.546 | 1.27 | 0.73 | 0.605 | 0.745 | 0.446 | 0.359 | 0.596 | 0.417 | 0.648 | 0.512 | 0.32 | 0.387 | 0.473 | 0.756 | 0.552
IGHHAYGDQYR [IDH1_Y135_R132H] | 0.629 | 0.724 | 0.538 | 0.342 | 0.537 | 0.467 | 0.426 | 0.448 | 0.355 | 0.386 | 0.439 | 0.421 | 0.418 | 0.363 | 0.564 | 0.389
SSAETYSRMCL [NBEAL2_Y1835_R1839C] | 0.545 | 0.73 | 0.486 | 0.669 | 0.851 | 0.849 | 0.649 | 0.695 | 0.526 | 1.01 | 0.859 | 0.561 | 0.708 | 0.616 | 0.84 | 0.426
EALDFYGEVRT [PTEN_Y155] | 0.458 | 0.635 | 0.643 | 0.872 | 1.39 | 0.825 | 0.829 | 1.51 | 1 | 0.707 | 0.918 | 0.37 | 1.01 | 0.65 | 1.23 | 0.501
PVQAAYQKLVA [HBB_Y131_V134L] | 0.709 | 0.659 | 0.764 | 0.698 | 0.796 | 0.518 | 0.458 | 1.55 | 0.582 | 0.768 | 0.558 | 0.577 | 0.499 | 0.494 | 0.735 | 0.447
AVDVTYDGHPV [FLNB_Y1020] | 0.444 | 0.803 | 0.476 | 0.63 | 0.982 | 0.705 | 1.09 | 0.724 | 2.3 | 0.925 | 2.78 | 0.429 | 2.55 | 3.74 | 1.11 | 0.497
LFSNAYLSDLA [ALDH1A1_Y119_N121S_YF] | 0.36 | 0.783 | 0.601 | 1.42 | 2.92 | 2.14 | 2.12 | 2.06 | 1.23 | 1.31 | 0.974 | 1.81 | 2.79 | 1.15 | 2.21 | 2.39
YLAATYPTVGQ [NF1_Y2508] | 0.515 | 0.796 | 0.97 | 0.51 | 0.753 | 0.518 | 0.357 | 1.08 | 0.455 | 0.357 | 0.454 | 0.73 | 0.407 | 0.472 | 0.677 | 0.582
KHVMPYAANKN [GRIN2A_Y1431_E1426K] | 0.92 | 1.03 | 1.2 | 0.387 | 0.511 | 0.484 | 0.301 | 0.443 | 0.345 | 0.374 | 0.332 | 0.383 | 0.36 | 0.43 | 0.547 | 0.401
